Assay results from patent publication US20250289871A1 (AstraZeneca / MedImmune, published 2025).

B1: RQ43 (TM-YTE) (antibody, V domains shown)
VH: EVQLLETGGGLVQPGRSLRLSCAASGFPFDDYAIHWVRLAPGKGLEWVSSISWDSGSIGYADSVKGRFTISRDNAKNSLYLQMNSLRAEDTALYYCAKGAFPGYSSGWYYGLDVWGQGATVTVSS
VL: QSVVTQPPSASGSLGQSVTISCTGTSSDVGGYNYVSWYQQHPGKAPKLMIFEVSKRPSGVPDRFSGSKSGNTASLTVSGLQAEDEADYYCSSYAGNKGVFGGGTKLTVL
B2: RQ33 (TM-YTE) (antibody, V domains shown)
VH: QVQLQESGPGLVKPSETLSLTCTVFGGSITSSNHYWVWIRQPPGKGLEWIGSMYYSGSTAYNPSLTNRVTISVDTSKNQFSLKLSSVTAADTAVYYCARQIGPKRPSQVADWFDPWGQGTLVTVSS
VL: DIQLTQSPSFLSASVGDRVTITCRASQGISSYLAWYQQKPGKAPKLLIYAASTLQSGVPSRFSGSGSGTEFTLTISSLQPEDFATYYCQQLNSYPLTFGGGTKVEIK
B3: RQ40 (TM-YTE) (antibody, V domains shown)
VH: EVQLVESGAEVKKPGSSVKVSCKASGGTFSSYAINWVRQAPGQGLEWMGGIIPIFRTPHYAQKFQGRVTITADESTGTAYMELSSLRSEDTAVYYCASPSCGGDCPQYLKSSKLDWYFDLWGRGTLVTVSS
VL: VIWMTQSPGTLSLSPGERATLSCRASQSVSSTYLAWYQQKPGQAPRLLIYGASSRATGIPDRFSGSGSGTDFTLTISRLEPEDFAVYYCQHYGSSPLTFGQGTRLEIK

biological target: SARS-CoV-2 spike RBD (residues 334-526), AviTag and 8×HisTag (SARS-CoV-2, UniProt P0DTC2 334-526)

**Q.** B1 was tested. Which Kd did it give?
**A.** < 0.001 nM

**Q.** B2 was tested. Which Kd did it give?
**A.** 3.65 nM

**Q.** For B3, which Kd is on record?
**A.** < 0.001 nM
